Test [1] concerns the target SARS-CoV receptor binding domain (RBD), His-tagged (SARS-CoV, UniProt P59594 306-527). Kind of test: SPR.
Test [2] addresses SARS-CoV-2 receptor binding domain (RBD), His-tagged (SARS-CoV-2, UniProt P0DTC2 319-541). Kind of test: SPR.

B1: pig ACE2 ectodomain fused with mouse Fc (Fc fusion)
chain: QSTTEELAKTFLEKFNLEAEDLAYQSSLASWNYNTNITDENIQKMNDARAKWSAFYEEQSRIAKTYPLDEIQTLILKRQLQALQQSGTSGLSADKSKRLNTILNTMSTIYSSGKVLDPNNPQECLVLEPGLDEIMENSKDYSRRLWAWESWRAEVGKQLRPLYEEYVVLENEMARANNYEDYGDYWRGDYEVTGTGDYDYSRNQLMEDVERTFAEIKPLYEHLHAYVRAKLMDAYPSRISPTGCLPAHLLGDMWGRFWTNLYPLTVPFGEKPSIDVTEAMVNQSWDAIRIFEEAEKFFVSIGLPNMTQGFWNNSMLTEPGDGRKVVCHPTAWDLGKGDFRIKMCTKVTMDDFLTAHHEMGHIQYDMAYAIQPYLLRNGANEGFHEAVGEIMSLSAATPHYLKALGLLPPDFYEDSETEINFLLKQALTIVGTLPFTYMLEKWRWMVFKGEIPKEQWMQKWWEMKREIVGVVEPLPHDETYCDPACLFHVAEDYSFIRYYTRTIYQFQFHEALCRTAKHEGPLYKCDISNSTEAGQKLLQMLSLGKSEPWTLALENIVGVKTMDVKPLLSYFEPLLTWLKAQNGNSSVGWNTDWTPYADQSIKVRISLKSALGKEAYEWNDNEMYLFRSSIAYAMRNYFSSAKNETIPFGAEDVWVSDLKPRISFNFFVTSPANMSDIIPRSDVEKAISMSRSRINDAFRLDDNTLEFLGIQPTLGPPDEPPVT
For B1, the Kd in test [1] amounted to 35.8 nM; in test [2] it was 47.6 nM.

B2: raccoon dog ACE2 ectodomain fused with mouse Fc (Fc fusion)
chain: QSTEDLVNTFLEKFNYEAEELSYQSSLASWNYNTNITDENLQKMNNAGAKWSAFYEEQSKLAKTYPLEEIQDSTVKRQLRALQHSGSSVLSADKNQRLNTILNSMSTIYSTGKACNPSNPQECLLLEPGLDDIMENSKDYNERLWAWEGWRSEVGKQLRPLYEEYVALKNEMARANNYEDYGDYWRGDYEEEWENGYNYSRNQLIDDVEHTFTQIMPLYQHLHAYVRTKLMDTYPSYISPTGCLPAHLLGDMWGRFWTNLYPLTVPFGQKPNIDVTNAMVNQSWDARKIFKEAEKFFVSVGLPNMTQGFWENSMLTEPSDSWKVVCHPTAWDLGRGDFRIKMCTKVTMDDFLTAHHEMGHIQYDMAYAAQPFLLRNGANEGFHEAVGEIMSLSAATPNHLKNIGLLPPSFFEDSETEINFLLKQALTIVGTLPFTYMLEKWRWMVFKGEIPKDQWMKTWWEMKRNIVGVVEPVPHDETYCDPASLFHVANDYSFIRYYTRTIYQFQFQEALCQIAKHEGPLHKCDISNSSEAGQKLLEMLKLGKSKPWTYALEIVVGAKNMDVRPLLNYFEPLFTWLKEQNRNSFVGWNTDWSPYADQSIKVRISLKSALGEKAYEWNNNEMYLFRSSIAYAMRQYFSEVKNQTIPFVEDNVWVSDLKPRISFNFFVTSPGNVSDIIPRTEVEEAIRMYRSRINDVFRLDDNSLEFLGIQPTLGPPYEPPVT
For B2, the Kd in test [1] amounted to 179 nM; in test [2], 96.4 nM.

B3: rabbit ACE2 ectodomain fused with mouse Fc (Fc fusion)
chain: QSTIEELAKTFLEKFNQEAEDLSYQSALASWDYNTNITEENVQKMNDAEAKWSAFYEEQSKLAKTYPSQEVQNLTVKRQLQALQQSGSSALSADKSKQLNTILSTMSTIYSTGKVCNQSNPQECFLLEPGLDEIMAKSTDYNERLWAWEGWRSVVGKQLRPLYEEYVVLKNEMARANNYEDYGDYWRADYEAEGADGYDYSRSQLIDDVERTFSEIKPLYEQLHAFVRTKLMDAYPSRISPTGCLPAHLLGDMWGRFWTNLYSLTVPFGQKPNIDVTDTMVNQGWDAERIFKEAEKFFVSVGLPSMTQGFWENSMLTEPGDGRKVVCHPTAWDLGKGDFRIKMCTKVTMDNFLTAHHEMGHIQYDMAYATQPFLLRNGANEGFHEAVGEIMSLSAATPEHLKSIGLLPYDFHEDNETEINFLLKQALTIVGTLPFTYMLEKWRWMVFKGEIPKEQWMQKWWEMKREIVGVVEPMPHDETYCDPAALFHVANDYSFIRYYTRTIYQFQFQEALCQAAQHEGPLHKCDISNSTEAGQKLLNMLRLGRSEPWTLALENVVGAKNMDVRPLLNYFEPLFTWLKEQNRNSFVGWSTEWTPYADQSIKVRISLKTALGDQAYEWNDSEMYLFRSSVAYAMRKYFSEVKNQTILFGEEDVRVSDLKPRISFNFFVTAPNNVNDIIPRNEVEEAISMSRSRINDIFRLDDNSLEFVGIQPTLEPPYESPVP
Turning to B3, the Kd came to 74.8 nM in test [1] and 76.2 nM in test [2].

The values above are taken from paper PMC7526519 (2020).
